{"source": "paper PMC6640674", "biological_target": "BPSL1626 (Burkholderia pseudomallei strain K96423) (UniProt Q63UH6)", "assay": "crystal structure", "data": [{"substance": "BPSL1626 (from UniProt Q63UH6 26-176) (natural protein)", "values": [{"measurement": "stoichiometry N", "value": 2}]}]}
